Source: article PMC4747207 (2015)

Target: GST-Skp1 (Homo sapiens (Human), UniProt P63208)
Test: GST pull-down, Western blot

Chain of GST-Skp1 (P63208 whole entry): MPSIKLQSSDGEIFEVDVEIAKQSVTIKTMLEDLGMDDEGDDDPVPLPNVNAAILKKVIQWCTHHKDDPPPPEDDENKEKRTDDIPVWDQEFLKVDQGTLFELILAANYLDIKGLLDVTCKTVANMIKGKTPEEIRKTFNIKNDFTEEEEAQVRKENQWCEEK

binding result: no binding
B1: Recombinant human MAGE-C2 protein (protein)
chain: MPPVPGVPFRNVDNDSPTSVELEDWVDAQHPTDEEEEEASSASSTLYLVFSPSSFSTSSSLILGGPEEEEVPSGVIPNLTESIPSSPPQGPPQGPSQSPLSSCCSSFSWSSFSEESSSQKGEDTGTCQGLPDSESSFTYTLDEKVAELVEFLLLKYEAEEPVTEAEMLMIVIKYKDYFPVILKRAREFMELLFGLALIEVGPDHFCVFANTVGLTDEGSDDEGMPENSLLIIILSVIFIKGNCASEEVIWEVLNAVGVYAGREHFVYGEPRELLTKVWVQGHYLEYREVPHSSPPYYEFLWGPRAHSESIKKKVLEFLAKLNNTVPSSFPSWYKDALKDVEERVQATIDTADDATVMASESLSVMSSNVSFSE
